The text below walks through data of patent publication US20230038878A1 (EVER SUPREME BIO TECHNOLOGY, published 2023).

Experiment [1] deals with HLA-G recombinant protein (Origene, CAT #: TP305216) (human) (UniProt P17693). Briefly: competitive ELISA; competitor biotinylated KIR2DL4 on HLA-G recombinant protein.
Experiment [2] has the same target. Briefly: competitive ELISA; competitor biotinylated LILRB1 on HLA-G recombinant protein.
Experiment [3] shares this target. Briefly: competitive ELISA on HLA-G recombinant protein; blocked ligand: biotinylated KIR2DL4.
The target is the same in experiment [4]. Nature of the experiment: competitive ELISA on HLA-G recombinant protein; blocked ligand: biotinylated LILRB1.
The target of experiment [5] is T1, PD-L1 on PD-L1 aAPC/CHO-K1 cells (PD-1/PD-L1 Blockade Bioassay Kit, Promega) (UniProt Q9NZQ7 19-290, limits assumed). Briefly: cell-based or functional assay.
T1 sequence (Q9NZQ7 19-290 limits assumed): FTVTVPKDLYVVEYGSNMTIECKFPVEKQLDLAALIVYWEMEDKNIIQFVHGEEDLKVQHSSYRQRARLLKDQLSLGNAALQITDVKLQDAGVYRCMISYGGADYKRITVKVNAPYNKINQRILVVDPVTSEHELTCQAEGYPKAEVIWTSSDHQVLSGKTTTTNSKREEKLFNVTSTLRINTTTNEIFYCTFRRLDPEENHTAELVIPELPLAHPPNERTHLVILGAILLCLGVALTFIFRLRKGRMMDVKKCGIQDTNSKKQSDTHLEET
The target in experiment [6] is T2, PD-L1 recombinant protein (Sino Biological, CAT #: 10084-H05H) (UniProt Q9NZQ7 19-239).
T2 construct: Bought protein; also called programmed death-ligand 1
T2 sequence (Q9NZQ7 19-239 limits assumed): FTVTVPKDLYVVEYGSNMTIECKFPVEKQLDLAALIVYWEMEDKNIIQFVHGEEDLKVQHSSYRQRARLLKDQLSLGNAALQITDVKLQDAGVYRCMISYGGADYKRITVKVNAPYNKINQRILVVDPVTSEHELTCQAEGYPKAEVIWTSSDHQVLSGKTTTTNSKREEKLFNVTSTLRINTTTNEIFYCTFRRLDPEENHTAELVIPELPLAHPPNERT
Briefly: SPR. As to the method:
The kinetic analysis of the PD-L1 nanobodies of the present disclosure and the binding affinity analysis of the PD-L1 recombinant protein (Sino Biological, CAT #: 10084-H05H) are performed by SPR analysis.

In experiment [7] the target is T1, PD-L1 on PD-L1 aAPC/CHO-K1 cells …. Briefly: cell-based or functional assay. The source holds these as a separate data set.

Some results are limits rather than exact numbers.

For “HLA-G monoclonal antibody (87G, ThermoFisher)”, the values for the half-inhibitory concentration (IC50) in experiment [1] and in experiment [2] were 104 nM and above 1000 nM, respectively. For the same molecule, the IC50 (read off the curve) in experiment [3] is 100 nM; in experiment [4], 7 µM.

B1: PD-L1 Nb #3 (VHH)
VHH: EVQLVESGGGLVQPGGSLRLSCVASGFTFSSIGMSWVRQAPGKGLEWVSGLNPVGSHTGYADSVKGRFTISRDNAKNTLHLQLNSLKTEDTAMYYCQRGYTCSGDLCERGQGTQVTVSS
notes: Prepared as a free nanobody; also called PD-L1 nanobody
On to B1, for which the “IC50 (read off the curve); PD-1/PD-L1 Blockade Bioassay (Promega), bioluminescence (RLU), which rises with the concentration” value in experiment [5] was around 20 nM. For the same molecule, in experiment [6], the Kd (in general, the free concentration of one partner at which half of the binding sites on the other are occupied at equilibrium, for simple one-to-one binding) stood at 0.86 nM; the koff (as a rule, the first-order rate constant of dissociation) stood at 0.00521 s⁻¹; the kon (as a rule, a measure of how fast the partners come together) stood at 6.04e+06 M⁻¹ s⁻¹. The “IC50 for the PD-1 blocking activity (PD-1/PD-L1 Blockade Bioassay, luminescence)” value in experiment [7] was around 37.7 nM.

B2: PD-L1 Nb #15 (VHH)
VHH: HVQLVESGGGLVQPGGSLRLSCAASGFTFSSKAMSWVRQAPGKGLDWVSTINSGGGNTYYSDSVKGRFTISRDNAKNTLYLQLNSLKTEDTAMYYCSRCSDIYCGGQYTYRGQGTLVTVSS
notes: as for B1
On to B2, for which, in experiment [6], the Kd is 0.91 nM, the koff was 0.000936 s⁻¹ and the kon was 1.03e+06 M⁻¹ s⁻¹. The “IC50 for the PD-1 blocking activity (PD-1/PD-L1 Blockade Bioassay, luminescence)” value in experiment [7] is around 0.48 nM.
